# Experimental data taken from patent publication US20210393713A1 (University of Pennsylvania, published 2021).
# T1: Twin-Strep-tagged LY6A, BALB/cJ variant (GPI-anchor truncated, soluble) (mouse (BALB/cJ), UniProt P05533 27-111)
# T1 construct: range 1-111; also called BALB/cJ LY6A; BABL/cJ LY6A; not shown: Twin-Strep-tag from vector pESG-IBA103
# T1 sequence: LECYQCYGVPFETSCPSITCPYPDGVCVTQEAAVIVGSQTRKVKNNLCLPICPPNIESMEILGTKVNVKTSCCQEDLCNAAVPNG
# Biological target: T1, Twin-Strep-tagged LY6A, BALB/cJ variant …
# Test: ELISA, AAV particles on plate-bound Twin-Strep-tagged LY6A
row,Binder,binding result
1,AAV-PHP.B V592G mutant capsid (other) MAADGYLPDWLEDNLSEGIREWWALKPGAPQPKANQQHQDNARGLVLPGYKYLGPGNGLDKGEPVNAADAAALEHDKAYDQQLKAGDNPYLKYNHADAEFQERLKEDTSFGGNLGRAVFQAKKRLLEPLGLVEEAAKTAPGKKRPVEQSPQEPDSSAGIGKSGAQPAKKRLNFGQTGDTESVPDPQPIGEPPAAPSGVGSLTMASGGGAPVADNNEGADGVGSSSGNWHCDSQWLGDRVITTSTRTWALPTYNNHLYKQISNSTSGGSSNDNAYFGYSTPWGYFDFNRFHCHFSPRDWQRLINNNWGFRPKRLNFKLFNIQVKEVTDNNGVKTIANNLTSTVQVFTDSDYQLPYVLGSAHEGCLPPFPADVFMIPQYGYLTLNDGSQAVGRSSFYCLEYFPSQMLRTGNNFQFSYEFENVPFHSSYAHSQSLDRLMNPLIDQYLYYLSRTINGSGQNQQTLKFSVAGPSNMAVQGRNYIPGPSYRQQRVSTTVTQNNNSEFAWPGASSWALNGRNSLMNPGPAMASHKEGEDRFFPLSGSLIFGKQGTGRDNVDADKVMITNEEEIKTTNPVATESYGQVATNHQSAQTLAGPFKAQAQTGWVQNQGILPGMVWQDRDVYLQGPIWAKIPHTDGNFHPSPLMGGFGMKHPPPQILIKNTPVPADPPTAFNKDKLNSFITQYSTGQVSVEIEWELQKENSKRWNPEIQYTSNYYKSNNVEFAVNTEGVYSEPRPIGTRYLTRNL,no binding
2,AAV-PHP.eB capsid (other) MAADGYLPDWLEDNLSEGIREWWALKPGAPQPKANQQHQDNARGLVLPGYKYLGPGNGLDKGEPVNAADAAALEHDKAYDQQLKAGDNPYLKYNHADAEFQERLKEDTSFGGNLGRAVFQAKKRLLEPLGLVEEAAKTAPGKKRPVEQSPQEPDSSAGIGKSGAQPAKKRLNFGQTGDTESVPDPQPIGEPPAAPSGVGSLTMASGGGAPVADNNEGADGVGSSSGNWHCDSQWLGDRVITTSTRTWALPTYNNHLYKQISNSTSGGSSNDNAYFGYSTPWGYFDFNRFHCHFSPRDWQRLINNNWGFRPKRLNFKLFNIQVKEVTDNNGVKTIANNLTSTVQVFTDSDYQLPYVLGSAHEGCLPPFPADVFMIPQYGYLTLNDGSQAVGRSSFYCLEYFPSQMLRTGNNFQFSYEFENVPFHSSYAHSQSLDRLMNPLIDQYLYYLSRTINGSGQNQQTLKFSVAGPSNMAVQGRNYIPGPSYRQQRVSTTVTQNNNSEFAWPGASSWALNGRNSLMNPGPAMASHKEGEDRFFPLSGSLIFGKQGTGRDNVDADKVMITNEEEIKTTNPVATESYGQVATNHQSDGTLAVPFKAQAQTGWVQNQGILPGMVWQDRDVYLQGPIWAKIPHTDGNFHPSPLMGGFGMKHPPPQILIKNTPVPADPPTAFNKDKLNSFITQYSTGQVSVEIEWELQKENSKRWNPEIQYTSNYYKSNNVEFAVNTEGVYSEPRPIGTRYLTRNL,binds
